Data as given in patent US20260209301A1, “Galanin-2 Receptor Agonists” (LIFEARC, priority 2022, published 2026).

Columns and labels:
rat GalR2 = target: T1, rat GalR2 (Rattus norvegicus, UniProt O08726); assay: Calcium assay at orthologue receptor; format: cell-based; details: Table 8; Calcium assays; mean +/− standard deviation
T1 sequence (O08726 1-372): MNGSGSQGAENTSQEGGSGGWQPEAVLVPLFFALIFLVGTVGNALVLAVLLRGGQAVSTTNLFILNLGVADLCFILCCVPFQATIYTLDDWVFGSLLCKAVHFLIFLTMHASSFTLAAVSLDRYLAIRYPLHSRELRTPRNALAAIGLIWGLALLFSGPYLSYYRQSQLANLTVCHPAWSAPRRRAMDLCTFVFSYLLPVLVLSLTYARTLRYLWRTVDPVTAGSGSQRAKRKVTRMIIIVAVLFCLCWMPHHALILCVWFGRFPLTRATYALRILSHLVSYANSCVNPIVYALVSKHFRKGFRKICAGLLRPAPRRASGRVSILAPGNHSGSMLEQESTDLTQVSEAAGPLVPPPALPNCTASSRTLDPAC
Text: These species were chosen as they represent potential downstream in vivo models to be used. […] Calcium imaging was used to define receptor activity.

GALR2 = target: T2, GALR2 (Homo sapiens, UniProt O43603); assay: Radioligand binding, [125I]galanin displacement on CHO GalR2 membranes; design: expressed in transfected cells; host or cells: CHO (Flp-In, pcDNA5/FRT); details: recombinant GalR2 membranes, FIG. 3
T2 sequence (O43603 1-387): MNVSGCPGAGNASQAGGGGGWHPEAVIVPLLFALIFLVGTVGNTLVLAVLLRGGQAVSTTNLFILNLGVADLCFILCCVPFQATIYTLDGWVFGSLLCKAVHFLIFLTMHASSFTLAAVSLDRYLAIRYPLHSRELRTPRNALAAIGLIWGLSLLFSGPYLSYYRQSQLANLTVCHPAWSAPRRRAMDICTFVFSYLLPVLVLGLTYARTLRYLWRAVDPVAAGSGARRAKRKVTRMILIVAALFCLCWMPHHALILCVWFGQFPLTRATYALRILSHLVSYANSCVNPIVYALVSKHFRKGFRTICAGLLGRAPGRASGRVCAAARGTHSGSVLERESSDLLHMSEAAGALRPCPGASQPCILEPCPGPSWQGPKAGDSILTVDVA
Experimental: Cell membrane homogenates (4 μg protein—from CHO cells expressing the GalR2 receptor) were incubated for 120 minutes at 22° C. with 0.05 nM [^125I] galanin in the absence or presence of test compound in a buffer containing 25 mM Tris-HCl (pH 7.4, 10 mM MgCl2 and 0.5% BSA. Non-specific binding was determined in the presence of 1 μM porcine galanin. Following incubation, samples were filtered rapidly under vacuum through glass fiber filters (GF/B, Packard) pre-soaked with 0.3% PEI and rinsed several times with ice cold 50 mM Tris-HCl using a 96 sample cell harvester (Unifilter, Packard). The filters are dried then counted for radioactivity in a scintillation counter (Topcount, Packard) using a scintillation cocktail (Microscint 0), Packard). The results are expressed as a percent inhibition of the control radioligand specific binding. The standard reference compound is porcine galanin which is tested in each experiment at several concentrations to obtain a competition curve from which its IC50 is generated.
Briefly, cell overexpressing recombinant GalR2 were used to for crude membrane preparations. Competition style binding assays were then used to monitor displacement of [125I]-Galanin using a range of concentrations of Gal-FC fusion. After a period of incubation data were expressed relative the maximum specific Galanin bound.

Substance	Rat GalR2 activity (rat GalR2)	pIC50, displacement of [125I]-Galanin binding (GALR2)
Gal2-13FC: galanin 2-13, AEAAAKEAAAKA linker, human IgG1 FC; SEQ ID NO: 7	6.5 +/− 0.1	
Gal2-30FC: galanin 2-30, AEAAAKEAAAKA linker, human IgG1 FC; SEQ ID NO: 28		7.55
